This note sets out measurements from paper PMC5957534.

What all share (test): DNA electrochemistry
The target of one data set is T1, StXPB1 (Sulfolobus tokodaii, UniProt Q971U1 1-543).
T1 sequence: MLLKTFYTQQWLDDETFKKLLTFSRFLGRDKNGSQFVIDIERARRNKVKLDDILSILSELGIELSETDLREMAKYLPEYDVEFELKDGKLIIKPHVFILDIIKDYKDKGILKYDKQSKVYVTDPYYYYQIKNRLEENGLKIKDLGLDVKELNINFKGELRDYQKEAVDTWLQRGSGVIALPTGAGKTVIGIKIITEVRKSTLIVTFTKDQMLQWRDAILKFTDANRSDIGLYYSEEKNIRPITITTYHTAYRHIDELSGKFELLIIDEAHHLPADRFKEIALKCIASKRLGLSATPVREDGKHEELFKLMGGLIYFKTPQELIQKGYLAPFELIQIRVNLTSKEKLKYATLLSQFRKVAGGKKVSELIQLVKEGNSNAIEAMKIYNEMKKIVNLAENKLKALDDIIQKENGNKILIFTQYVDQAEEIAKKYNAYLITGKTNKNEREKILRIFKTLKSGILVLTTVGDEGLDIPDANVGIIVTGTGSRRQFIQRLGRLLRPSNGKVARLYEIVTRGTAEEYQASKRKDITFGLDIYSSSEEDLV

A further data set concerns the target T2, StXPB2 (Sulfolobus tokodaii, UniProt Q970I2 1-439).
T2 sequence: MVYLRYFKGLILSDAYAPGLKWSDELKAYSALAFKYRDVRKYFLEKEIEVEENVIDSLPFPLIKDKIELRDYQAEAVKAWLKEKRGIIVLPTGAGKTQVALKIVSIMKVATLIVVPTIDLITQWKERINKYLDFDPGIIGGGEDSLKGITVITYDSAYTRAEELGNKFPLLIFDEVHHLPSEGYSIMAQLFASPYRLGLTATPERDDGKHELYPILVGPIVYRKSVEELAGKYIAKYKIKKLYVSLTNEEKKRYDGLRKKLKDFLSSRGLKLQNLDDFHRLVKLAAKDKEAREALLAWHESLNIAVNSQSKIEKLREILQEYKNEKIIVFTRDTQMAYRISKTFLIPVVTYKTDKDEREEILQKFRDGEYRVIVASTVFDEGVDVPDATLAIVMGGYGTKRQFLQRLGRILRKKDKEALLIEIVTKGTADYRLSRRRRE

In a further data set the target is T3, AfXPB (Archaeoglobus fulgidus, UniProt O29889 1-452).
T3 sequence: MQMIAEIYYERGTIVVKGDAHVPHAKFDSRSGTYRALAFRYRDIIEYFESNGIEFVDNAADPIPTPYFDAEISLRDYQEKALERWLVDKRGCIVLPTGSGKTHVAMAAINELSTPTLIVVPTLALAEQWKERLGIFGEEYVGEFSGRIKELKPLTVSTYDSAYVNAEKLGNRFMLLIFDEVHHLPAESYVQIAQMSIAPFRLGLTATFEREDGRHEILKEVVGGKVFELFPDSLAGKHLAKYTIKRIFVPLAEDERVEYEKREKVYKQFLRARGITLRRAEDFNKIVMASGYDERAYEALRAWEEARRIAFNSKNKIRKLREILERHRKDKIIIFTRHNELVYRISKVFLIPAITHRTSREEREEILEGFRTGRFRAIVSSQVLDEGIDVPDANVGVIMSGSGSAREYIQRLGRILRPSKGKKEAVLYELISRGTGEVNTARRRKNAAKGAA

B1: 17mer well-matched duplex (WM) (dsDNA)
DNA 1: GAGATATAAAGCACGCA
DNA 2: TGCGTGCTTTATATCTC
modifications: strand 1 5' C6 thiol on gold electrode; strand 2 5'-terminal T is Nile Blue-modified (5-acrylate dU)
In the case of B1, the Kd stood at 8 ± 2 nM with StXPB1, 50 ± 10 nM with StXPB2 and 22 ± 8 nM with AfXPB.
